Molecular target: T1, human LAG3 expressed on cells (human, UniProt P18627 23-525)
T1 construct: whole, on cells
T1 sequence (looked up): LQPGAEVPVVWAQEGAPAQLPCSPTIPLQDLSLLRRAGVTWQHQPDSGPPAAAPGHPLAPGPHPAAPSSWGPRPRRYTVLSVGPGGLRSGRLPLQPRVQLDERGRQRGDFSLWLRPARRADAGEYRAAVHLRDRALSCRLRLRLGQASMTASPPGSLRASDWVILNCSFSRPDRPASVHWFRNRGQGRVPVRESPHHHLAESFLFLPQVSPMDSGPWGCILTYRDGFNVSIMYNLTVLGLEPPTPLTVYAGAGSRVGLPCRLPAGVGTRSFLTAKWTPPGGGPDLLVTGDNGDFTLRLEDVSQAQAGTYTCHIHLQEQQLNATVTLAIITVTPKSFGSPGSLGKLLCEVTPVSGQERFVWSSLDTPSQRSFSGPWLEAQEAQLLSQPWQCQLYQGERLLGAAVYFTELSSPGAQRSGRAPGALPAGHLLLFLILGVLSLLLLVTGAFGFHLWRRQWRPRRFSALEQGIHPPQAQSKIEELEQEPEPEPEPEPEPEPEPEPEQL
Experiment: cell ELISA, 293T-hLAG3 cells
Procedure: Each well was treated with stimulants. The cells were then fixed and blocked with Blocking buffer. The Primary antibodies were added. The wells were washed and a HRP-conjugated secondary antibody was added. The wells were washed with 1x PBS and a solution containing TMB (Biopanda, TMB-S-004) was added. The TMB reacted with HRP to change the color thereof from colorless to blue. An acid stop solution (Solarbio, C1058) was then added to stop the reaction and change the blue color to yellow.
Materials are listed below: [0072] […] 2) Blocking buffer: 1×PBS+3% BSA (Sigma, B2064); [0074] […] [0075] 4) Secondary antibody: Goat anti-human IgG1 Fc antibody, HRP (1:2500, invitrogen, A18817). [0076]

| Binder | EC50 [nM] | OD450 at 0.0045725 ug/ml | OD450 at 0.0137174 ug/ml | OD450 at 0.0411523 ug/ml | OD450 at 0.1234568 ug/ml | OD450 at 0.3703704 ug/ml | OD450 at 1.111111 ug/ml | OD450 at 3.333333 ug/ml | OD450 at 10 ug/ml |
| --- | --- | --- | --- | --- | --- | --- | --- | --- | --- |
| sdAb No. 17 (VHH, Fc of the tested form not described; also called sdAb 17; not shown: Fc part implied by anti-human Fc capture and anti-human IgG1 Fc detection) VHH: QLQLVESGGGLVQPGGSLRLSCAASGLTLDGYAIGWFRQAPGKEREGLACISGSDGSTHYLDSVKGRFTISRDNGKNTMALQMNSLQFGDTAIYYCAARRGSCSGSWTYWGQGTQVTVSS | 0.904 | 0.104 | 0.259 | 0.543 | 1.01 | 1.3 | 1.42 | 1.44 | 1.48 |
| sdAb No. 27 (VHH, Fc of the tested form not described; also called sdAb 27; not shown: Fc part implied by anti-human Fc capture and anti-human IgG Fc detection) VHH: QVQLVESGGGLVQPGGSLRLSCAASGFTLDYYAIGWFRQAPGKEREGVSCIRSSDGSTYYADSVKGRFTISSDNTKNTVYLQMNSLKPEDTAVYYCATDRYSDCRGPYENWGQGTQVTVSS | 1.18 | 0.097 | 0.198 | 0.408 | 0.79 | 1.13 | 1.28 | 1.21 | 1.26 |

From patent US20230303690A1 (published 2023)
